Assay [1] has as its target T1, recombinant human IL6 (human, UniProt P05231 30-212).
T1 construct: also called rhIL6; IL6 monomer
In words: SPR Biacore T100, binder captured by anti-human Fc. In general terms: Surface plasmon resonance follows binding to a sensor surface in real time, without labels.

For a further assay, the target named is T2, sIL6R Fc dimer (UniProt P08887 20-358, limits assumed).
T2 construct: not shown: Fc
T2 sequence (looked up): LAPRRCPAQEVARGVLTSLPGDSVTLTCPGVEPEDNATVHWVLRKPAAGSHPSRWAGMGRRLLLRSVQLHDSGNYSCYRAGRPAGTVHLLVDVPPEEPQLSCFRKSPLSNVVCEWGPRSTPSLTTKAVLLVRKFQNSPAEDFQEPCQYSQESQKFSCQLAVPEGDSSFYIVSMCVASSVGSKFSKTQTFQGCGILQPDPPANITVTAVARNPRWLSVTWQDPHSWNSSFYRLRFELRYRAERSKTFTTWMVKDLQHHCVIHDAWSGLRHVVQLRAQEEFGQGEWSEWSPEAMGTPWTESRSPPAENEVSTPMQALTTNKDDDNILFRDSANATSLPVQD
The assay is described as follows: SPR Biacore T100, binder captured by anti-human Fc. On the procedure: (§1) Binding affinities and kinetic rate constants of interaction of hyper-IL6 (HIL6; monomer or dimer), and its components IL6 and sIL6R, with different anti-HIL6 binding domains in scFv, SMIP, Xceptor and reverse Xceptor formats were determined using a Biacore® T100 instrument (GE Healthcare, Piscataway, N.J.).
(§2) Anti-HIL6 SMIPS, Xceptors, and reverse Xceptors were captured by a monoclonal mouse anti-human Fc, which was covalently conjugated to a carboxylmethyl dextran (CM4) surface via amines using N-ethyl-N′-(3-dimethylaminopropyl)-carbodiimide hydrochloride and N-hydroxysuccinimide. The unoccupied sites of the activated surface were blocked by ethanolamine. […] In every cycle, three different HIL6 binders were captured on flow cells 2, 3 and 4, while flow cell 1 was used as the reference cell. For each cycle, a single concentration of a single HIL6-related molecule was injected for 150 seconds at 35 microliters per minute, and then allowed to dissociate for 300 seconds. At the end of the cycle, the surface was regenerated gently using 3M MgCl₂, which dissociates protein bound to anti-hFc capture antibody. Multiple cycles were performed to study binding of monomeric or dimeric HIL6 at different concentrations, in the range of 0-100 nM, for each set of three HIL6 binders captured. […] The experiment was performed at 25° C. Signal associated with binding to the reference cell was used to subtract for bulk refractive changes and blank (buffer-only) injections were used to correct for drift and system noise. The kinetic parameters and affinities were determined using BIAevaluation software. Anti-HIL6 scFv molecules were analyzed in the reverse orientation using a dimeric human HIL6/mouse IgG Fc fusion protein captured by an immobilized rabbit polyclonal anti-mouse IgG Fc antibody on the surface and injecting different concentrations of scFv over the surface. For the HIL6 components IL6 (eBioscience, catalog no. 14-8069) and sIL6R, a single 100 nM injection was performed to obtain a qualitative assessment of binding.

Assay [2] concerns the target T3, hu HIL6 Fc dimer (dimeric human HIL6/mouse IgG Fc fusion protein) (human).
T3 construct: also called human hyper-IL6 (IL6R-IL6-mIgG); dimeric HIL6
T3 chain: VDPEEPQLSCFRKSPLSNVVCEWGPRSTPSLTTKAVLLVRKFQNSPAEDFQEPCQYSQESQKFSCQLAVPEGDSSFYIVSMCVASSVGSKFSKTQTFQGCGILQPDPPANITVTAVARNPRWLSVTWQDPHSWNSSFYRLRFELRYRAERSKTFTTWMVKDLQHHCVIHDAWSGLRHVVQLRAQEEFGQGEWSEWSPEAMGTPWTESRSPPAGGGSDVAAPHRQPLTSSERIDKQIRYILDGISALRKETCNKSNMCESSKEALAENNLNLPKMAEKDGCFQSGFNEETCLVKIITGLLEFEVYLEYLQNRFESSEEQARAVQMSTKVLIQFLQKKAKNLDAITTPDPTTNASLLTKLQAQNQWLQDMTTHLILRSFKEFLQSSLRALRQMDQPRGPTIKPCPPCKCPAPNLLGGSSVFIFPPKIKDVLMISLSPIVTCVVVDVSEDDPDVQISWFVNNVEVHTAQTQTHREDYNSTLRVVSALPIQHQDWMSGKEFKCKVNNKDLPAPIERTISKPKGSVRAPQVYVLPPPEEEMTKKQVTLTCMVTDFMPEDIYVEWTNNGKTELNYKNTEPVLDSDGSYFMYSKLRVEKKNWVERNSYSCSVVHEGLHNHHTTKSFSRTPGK
In words: SPR Biacore T100, binder captured by anti-human Fc. The method, then: as §1, §2

A further assay has as its target T4, hu HIL6 AFH monomer (human).
T4 chain: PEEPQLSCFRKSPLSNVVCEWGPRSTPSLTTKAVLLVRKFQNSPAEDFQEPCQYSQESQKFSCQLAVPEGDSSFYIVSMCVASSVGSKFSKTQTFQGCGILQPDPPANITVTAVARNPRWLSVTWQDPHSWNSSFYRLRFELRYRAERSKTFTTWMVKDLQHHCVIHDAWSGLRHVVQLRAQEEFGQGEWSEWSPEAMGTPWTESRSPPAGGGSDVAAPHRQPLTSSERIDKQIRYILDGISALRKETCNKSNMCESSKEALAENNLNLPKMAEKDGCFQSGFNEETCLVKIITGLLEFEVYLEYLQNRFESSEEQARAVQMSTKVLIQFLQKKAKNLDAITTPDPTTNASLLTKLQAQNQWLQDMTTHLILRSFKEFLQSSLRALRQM
In words: SPR Biacore T100, binder captured by anti-human Fc. The method, then:
as §1, §2

In assay [3] the target is T1, recombinant human IL6. In words: SPR Biacore T100, binder captured by anti-human Fc. The method, then:
as §1, §2
This is another data set of the same source.

Another assay has as its target T5, IL6:sIL6R complex (human, UniProt P05231 30-212; P08887 20-358).
T5 construct: Non-covalent complex made by mixing 50 nM of each; about 30 nM complex estimated
The assay is described as follows: SPR Biacore, SMIP captured by anti-human Fc, complex injected. On the procedure:
In every cycle, three different HIL6 binders were captured on flow cells 2, 3 and 4, while flow cell 1 was used as the reference cell. For each cycle, a single concentration of a single HIL6-related molecule was injected for 150 seconds at 35 microliters per minute, and then allowed to dissociate for 300 seconds. At the end of the cycle, the surface was regenerated gently using 3M MgCl₂, which dissociates protein bound to anti-hFc capture antibody. Multiple cycles were performed to study binding of monomeric or dimeric HIL6 at different concentrations, in the range of 0-100 nM, for each set of three HIL6 binders captured. […] The experiment was performed at 25° C. Signal associated with binding to the reference cell was used to subtract for bulk refractive changes and blank (buffer-only) injections were used to correct for drift and system noise. The kinetic parameters and affinities were determined using BIAevaluation software. Anti-HIL6 scFv molecules were analyzed in the reverse orientation using a dimeric human HIL6/mouse IgG Fc fusion protein captured by an immobilized rabbit polyclonal anti-mouse IgG Fc antibody on the surface and injecting different concentrations of scFv over the surface. For the HIL6 components IL6 (eBioscience, catalog no. 14-8069) and sIL6R, a single 100 nM injection was performed to obtain a qualitative assessment of binding.

A further assay has as its target T6, recombinant human TNF-α (human, UniProt P01375 77-233).
T6 construct: also called rhTNFα
In words: sandwich ELISA, HIL-6 coated, Xceptor, then TNF-α. The method, then: The plate was covered, and incubated overnight at 4° C. […] The absorbance of each well was read at 450 nm.

For orientation: Kd means the free concentration of one partner at which half of the binding sites on the other are occupied at equilibrium, for simple one-to-one binding.

T6 sequence (P01375 77-233 limits assumed): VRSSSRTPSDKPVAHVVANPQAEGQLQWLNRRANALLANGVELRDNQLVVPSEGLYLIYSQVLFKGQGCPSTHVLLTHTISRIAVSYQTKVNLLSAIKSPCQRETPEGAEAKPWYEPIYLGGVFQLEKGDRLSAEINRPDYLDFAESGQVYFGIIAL

B1: TRU(S6)-1019 (Fc fusion)
chain: EVQLLESGGGLVQPGGSLRLSCAASGFTFSWYLMHWVRQAPGKGLEWVSGIWPSGGHTLYADSVKGRFTISRDNSKNTLYLQMNSLRAEDTAVYYCAREPLLWFGELSYNWFDPWGQGTLVTVSSGGGGSGGGGSGGGGSQDIQMTQSPSSVSASVGDRVTITCRASQGISSWLAWYQQKPGKAPKLLIYAASSLQSGVPSRFSGSGSGTDFTLTISSLQPEDFATYYCQQANSFPLTFGGGTKVEIKTGEPKSSDKTHTCPPCPAPEAAGAPSVFLFPPKPKDTLMISRTPEVTCVVVDVSHEDPEVKFNWYVDGVEVHNAKTKPREEQYNSTYRVVSVLTVLHQDWLNGKAYACAVSNKALPAPIEKTISKAKGQPREPQVYTLPPSRDELTKNQVSLTCLVKGFYPSDIAVEWESNGQPENNYKTTPPVLDSDGSFFLYSKLTVDKSRWQQGNVFSCSVMHEALHNHYTQKSLSLSPGK
notes: SMIP (scFv - linker - CH2CH3)
Turning to B1, the Kd with recombinant human IL6 [1] came to 0.44 nM; in assay [2], 2.7 nM; in the assay with hu HIL6 AFH monomer, 2 nM. Further, the binding result in the assay with sIL6R Fc dimer is recorded as “no binding (tested: 100 nM)”.

B2: TRU(S6)-1002 (Fc fusion)
chain: EVQLLESGGGLVQPGGSLRLSCAASGFTFSFYQMHWVRQAPGKGLEWVSGIYPSGGYTKYADSVKGRFTISRDNSKNTLYLQMNSLRAEDTAVYYCARDLGYGSSWYYFDYWGQGTLVTVSSGGGGSGGGGSGGGGSQSALTQPASVSGSPGQSITISCSGTDSDVGGYNHVSWYQQHPGKAPKLIIYDVDHRPSGISNRFSGSKSGNTASLTISGLQAEDEADYYCSSYRSGSTYVFGTGTKVTVLTGEPKSSDKTHTCPPCPAPEAAGAPSVFLFPPKPKDTLMISRTPEVTCVVVDVSHEDPEVKFNWYVDGVEVHNAKTKPREEQYNSTYRVVSVLTVLHQDWLNGKAYACAVSNKALPAPIEKTISKAKGQPREPQVYTLPPSRDELTKNQVSLTCLVKGFYPSDIAVEWESNGQPENNYKTTPPVLDSDGSFFLYSKLTVDKSRWQQGNVFSCSVMHEALHNHYTQKSLSLSPGK
notes: SMIP (scFv - linker - CH2CH3); also called S6-A2
Take B2: the binding result in the assay with recombinant human IL6 [3] is on record as “no binding (tested: 100 nM)”; with IL6:sIL6R complex it was “binds”. Also, the figures for the Kd (in assay [2]; with hu HIL6 AFH monomer) were 1.3 nM and 2 nM, respectively.

B3: TRU(XT6)-1006 (Fc fusion)
chain: LPAQVAFTPYAPEPGSTCRLREYYDQTAQMCCSKCSPGQHAKVFCTKTSDTVCDSCEDSTYTQLWNWVPECLSCGSRCSSDQVETQACTREQNRICTCRPGWYCALSKQEGCRLCAPLRKCRPGFGVARPGTETSDVVCKPCAPGTFSNTTSSTDICRPHQICNVVAIPGNASMDAVCTSTSPTRSMAPGAVHLPQPVSTRSQHTQPTPEPSTAPSTSFLLPMGPSPPAEGSTGDTGEPKSSDKTHTCPPCPAPEAAGAPSVFLFPPKPKDTLMISRTPEVTCVVVDVSHEDPEVKFNWYVDGVEVHNAKTKPREEQYNSTYRVVSVLTVLHQDWLNGKAYACAVSNKALPAPIEKTISKAKGQPREPQVYTLPPSRDELTKNQVSLTCLVKGFYPSDIAVEWESNGQPENNYKTTPPVLDSDGSFFLYSKLTVDKSRWQQGNVFSCSVMHEALHNHYTQKSLSLSPGQRHNNSSLNTRTQKARHSPNSEVQLLESGGGLVQPGGSLRLSCAASGFTFSQYNMIWVRQAPGKGLEWVSWISSSGGTEYADSVKGRFTISRDNSKNTLYLQMNSLRAEDTAVYYCAKDRGYGSGSYGAYDAFDIWGQGTMVTVSSGGGGSGGGGSGGGGSQDIQMTQSPSSLSASVGDRVTITCQTSQSIDRYLNWYQQKAGEAPKLLIYAASSLQSGVPSRFSGSGSGTDFTLTISSLQPEDFASYYCQQSYRTPRTFGQGTKVEIK
notes: Xceptor, TNFRSF1B ectodomain N-terminal, anti-IL6xR domain C-terminal
For B3, the binding result in the assay with recombinant human TNF-α was “binds”.

Values taken from US20110142851A1 (EMERGENT PRODUCT DEVELOPMENT SEATTLE, published 2011).
